Measured values published in patent US20220348651A1, “ENTPD2 ANTIBODIES, COMBINATION THERAPIES, AND METHODS OF USING THE ANTIBODIES AND COMBINATION THERAPIES” (Novartis AG, priority 2019, published 2022).

B1: mAb5: humanized anti-human ENTPD2 antibody from mAb16; VH SEQ ID NO: 46, VL SEQ ID NO: 64 (antibody, V domains shown)
VH: QIQLQESGPGLVKPSQTLSLTCTVSGYSITSGYYWNWIRQHPGKGLEWIGYISYDADNNYNPSLKNRVTISRDTSKNQFSLKLSSVTAADTAVYYCAGGYYRYGLGSYRGSYYYVMDYWGQGTTVTVSS
VL: ETVLTQSPATLSVSPGERATISCKASQSVDYDGNSYMNWYQQKPGQAPRLLIYAASNLESGIPARFSGSGSGTDFTLTISSVEPEDAATYYCQQSNEDPPTFGGGTKLEIK
B2: mAb2: humanized anti-human ENTPD2 antibody from mAb17; VH SEQ ID NO: 25, VL SEQ ID NO: 29 (antibody, V domains shown)
VH: QVQLVQSGAEVVKPGASVKISCKASGYTFTDYNMDWVKQAPGQRLEWIGDINPKYDISTYNQQFKGKATITVDKSASTAYMELSSLRSEDTAVYYCARRGFFLYYGINYYYFDVWGQGTLVTVSS
VL: EIVLTQSPATLSASPGERITLSCSASSSVSYIHWYQQKPGQAPRLLIYSTSNLASGIPARFSGSGSGTFYTLTISSVEPEDAAVYYCHQWSSYPWTFGGGTKLEIK
B3: mAb14: anti-mouse ENTPD2 antibody, T30 variant of mAb13; HC SEQ ID NO: 211, LC SEQ ID NO: 204 (antibody)
heavy: QVQLVQSGAELKQPGQSVKISCKASGYTFWHYGMNWVKQAPGQGLKWMGWINTDTGNPTYADDFKGRFVFSLDTSVSTAYLQISNLKNEDTATYYCVRYGTLYSGYGFFFDSWGQGTLVTVSSAKTTAPSVYPLAPVCGDTTGSSVTLGCLVKGYFPEPVTLTWNSGSLSSGVHTFPAVLQSDLYTLSSSVTVTSSTWPSQSITCNVAHPASSTKVDKKIEPRGPTIKPCPPCKCPAPNLLGGPSVFIFPPKIKDVLMISLSPIVTCVVVDVSEDDPDVQISWFVNNVEVHTAQTQTHREDYNSTLRVVSALPIQHQDWMSGKEFKCKVNNKDLPAPIERTISKPKGSVRAPQVYVLPPPEEEMTKKQVTLTCMVTDFMPEDIYVEWTNNGKTELNYKNTEPVLDSDGSYFMYSKLRVEKKNWVERNSYSCSVVHEGLHNHHTTKSFSRTPGK
light: DIMMTQSPSSLSVSAGEKATITCKSSQSLFNSNTNKNYLNWYLQKPGQSPKLLFYYASTRHTGVPDRFIGSGSGTDFTLTITSVQDEDLADYYCQQWYSYPWTFGPGTKLEIKRADAAPTVSIFPPSSEQLTSGGASVVCFLNNFYPKDINVKWKIDGSERQNGVLNSWTDQDSKDSTYSMSSTLTLTKDEYERHNSYTCEATHKTSTSPIVKSFNRNEC
B4: mAb15: anti-mouse ENTPD2 antibody, T30 variant of mAb13; HC SEQ ID NO: 218, LC SEQ ID NO: 204 (antibody)
heavy: QVQLVQSGAELKQPGQSVKISCKASGYTFHHYGMNWVKQAPGQGLKWMGWINTDTGNPTYADDFKGRFVFSLDTSVSTAYLQISNLKNEDTATYYCVRYGTLYSGYGFFFDSWGQGTLVTVSSAKTTAPSVYPLAPVCGDTTGSSVTLGCLVKGYFPEPVTLTWNSGSLSSGVHTFPAVLQSDLYTLSSSVTVTSSTWPSQSITCNVAHPASSTKVDKKIEPRGPTIKPCPPCKCPAPNLLGGPSVFIFPPKIKDVLMISLSPIVTCVVVDVSEDDPDVQISWFVNNVEVHTAQTQTHREDYNSTLRVVSALPIQHQDWMSGKEFKCKVNNKDLPAPIERTISKPKGSVRAPQVYVLPPPEEEMTKKQVTLTCMVTDFMPEDIYVEWTNNGKTELNYKNTEPVLDSDGSYFMYSKLRVEKKNWVERNSYSCSVVHEGLHNHHTTKSFSRTPGK
light: DIMMTQSPSSLSVSAGEKATITCKSSQSLFNSNTNKNYLNWYLQKPGQSPKLLFYYASTRHTGVPDRFIGSGSGTDFTLTITSVQDEDLADYYCQQWYSYPWTFGPGTKLEIKRADAAPTVSIFPPSSEQLTSGGASVVCFLNNFYPKDINVKWKIDGSERQNGVLNSWTDQDSKDSTYSMSSTLTLTKDEYERHNSYTCEATHKTSTSPIVKSFNRNEC

Legend:
human ENTPD2 = target: T1, human ENTPD2 (Homo sapiens, UniProt Q9Y5L3); assay: Biacore (SPR) affinity to human ENTPD2 ECD; type: binding; details: 25° C.
T1 construct: residues 29-462 of human or cyno ENTPD2 were cloned into expression vector; GP67 signal peptide (N); made in house; host or cells: High Five (Trichoplusia ni) insect cells, baculovirus
T1 sequence (Q9Y5L3 29-462): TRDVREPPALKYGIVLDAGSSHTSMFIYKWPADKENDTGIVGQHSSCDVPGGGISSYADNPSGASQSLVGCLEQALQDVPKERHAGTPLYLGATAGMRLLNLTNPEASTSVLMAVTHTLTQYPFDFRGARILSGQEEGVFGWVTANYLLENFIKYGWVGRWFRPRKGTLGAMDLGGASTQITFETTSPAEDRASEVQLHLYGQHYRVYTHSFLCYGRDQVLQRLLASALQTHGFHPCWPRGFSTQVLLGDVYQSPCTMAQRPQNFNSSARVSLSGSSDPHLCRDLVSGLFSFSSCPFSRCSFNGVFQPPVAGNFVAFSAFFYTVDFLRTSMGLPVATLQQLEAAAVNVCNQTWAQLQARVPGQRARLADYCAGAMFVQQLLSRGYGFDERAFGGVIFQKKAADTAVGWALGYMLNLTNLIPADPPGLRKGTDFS
Experimental: (§1) Biacore Screening: Affinity was measured by determining the kinetic rate constants using surface plasmon resonance (SPR) on a Biacore T200 or T100 with the T200 sensitivity upgrade instrument (Biacore, GE Healthcare). Antibodies were captured on CM5 sensor chips (Biacore, GE Healthcare) prepared with a mouse anti-human IgG Fc antibody (ThermoFisher catalogue #05-4200) amine coupled to the surface. […] ENTPD2 analytes were allowed to associate for 180 s and dissociate for up to 1800 s depending on the off-rate of the antibody at a flow rate of 30 μL/min. The running buffer was PBS pH 7.2 (prepared from a Corning 10X stock, cat#46-013-CM)+0.05% Tween 20. Regeneration was accomplished with 30 s injections of 3 or 4 M MgCl2 to remove all the captured antibody and remaining complex from the surface, after which fresh antibody was captured. The raw data were analyzed using Biacore T200 Evaluation Software version 1.0 and fit to a 1:1 binding model, with all parameters set to fit globally except for RI, which was set to fit locally.

[1] = system: cynomologus (cyno) ENTPD2; assay: Biacore (SPR) affinity to cyno ENTPD2 ECD; type: binding, cynomolgus monkey; details: 25° C.
cynomologus (cyno) ENTPD2, sequence (as listed by the source): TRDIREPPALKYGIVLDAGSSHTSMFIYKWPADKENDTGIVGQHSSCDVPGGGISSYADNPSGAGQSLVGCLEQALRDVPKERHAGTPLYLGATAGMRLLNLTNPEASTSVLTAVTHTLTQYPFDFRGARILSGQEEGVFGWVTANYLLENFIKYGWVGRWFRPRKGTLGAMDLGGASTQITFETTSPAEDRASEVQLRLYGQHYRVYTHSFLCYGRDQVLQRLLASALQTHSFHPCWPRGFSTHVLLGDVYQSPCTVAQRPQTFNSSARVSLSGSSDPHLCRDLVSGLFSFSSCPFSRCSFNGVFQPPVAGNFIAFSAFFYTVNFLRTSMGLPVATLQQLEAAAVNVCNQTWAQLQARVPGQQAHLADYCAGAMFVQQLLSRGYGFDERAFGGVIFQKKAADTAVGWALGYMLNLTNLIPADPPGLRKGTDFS
Experimental: as §1

mouse ENTPD2 [2] = target: T2, mouse ENTPD2 (Mus musculus, UniProt O55026); assay: Antibody specificity: binding to mouse ENTPD2; details: Mouse ENTPD2
T2 construct: residues 29-462 of mouse or rat ENTPD2 (the extracellular domain); mouse IgK signal peptide (N); His6; made in house; host or cells: FreeStyle 293-F cells, transient transfection
T2 sequence (O55026 29-462): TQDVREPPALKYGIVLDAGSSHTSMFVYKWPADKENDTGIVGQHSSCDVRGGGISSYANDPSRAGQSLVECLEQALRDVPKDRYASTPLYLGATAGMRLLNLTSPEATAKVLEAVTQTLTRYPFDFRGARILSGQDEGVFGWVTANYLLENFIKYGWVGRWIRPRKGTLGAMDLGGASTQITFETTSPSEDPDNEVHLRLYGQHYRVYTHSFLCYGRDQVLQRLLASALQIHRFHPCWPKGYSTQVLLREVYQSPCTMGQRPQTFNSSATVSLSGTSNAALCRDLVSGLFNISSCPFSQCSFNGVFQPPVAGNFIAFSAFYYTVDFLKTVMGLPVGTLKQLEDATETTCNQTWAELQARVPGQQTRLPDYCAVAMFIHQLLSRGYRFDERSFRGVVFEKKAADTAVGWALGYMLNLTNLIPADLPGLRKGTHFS
From the text: Antibody specificity for mAbl-mAblO was confirmed. […] Antibodies mAb8, mAb9, and mAb10 show weak affinity to mouse ENTPD2. None of the selected antibodies bind to rat ENTPD2.

mouse ENTPD2 [3] = target: T3, mouse ENTPD2 (Mus musculus, UniProt O55026); assay: Mouse ENTPD2 NIH/3T3 cell-based functional assay; details: mouse ENTPD2 NIH/3T3 cells, 100 nM
T3 construct: expressed in transfected cells; host or cells: NIH/3T3 (retroviral transduction)
T3 sequence (O55026 1-495): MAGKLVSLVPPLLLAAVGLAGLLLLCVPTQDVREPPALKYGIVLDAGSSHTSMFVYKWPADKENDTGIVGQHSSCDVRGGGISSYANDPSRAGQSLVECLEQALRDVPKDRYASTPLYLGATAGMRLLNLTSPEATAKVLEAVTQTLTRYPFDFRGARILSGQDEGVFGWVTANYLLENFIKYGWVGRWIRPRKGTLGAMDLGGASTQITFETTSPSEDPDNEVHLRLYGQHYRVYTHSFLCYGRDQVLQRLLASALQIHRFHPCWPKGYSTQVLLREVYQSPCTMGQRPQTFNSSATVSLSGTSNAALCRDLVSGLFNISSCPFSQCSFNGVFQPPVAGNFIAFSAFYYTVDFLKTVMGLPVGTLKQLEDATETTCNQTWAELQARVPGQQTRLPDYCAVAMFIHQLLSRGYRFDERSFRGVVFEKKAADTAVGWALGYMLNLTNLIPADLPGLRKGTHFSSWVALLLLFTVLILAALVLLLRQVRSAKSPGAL
From the text: Biochemical and cell-based functional assays were developed in-house to understand functional impact of anti-ENTPD2 Abs against purified extracellular domain of ENTPD2 (residues 29-462), as well as against the fully intact protein in the context of the native cell-based conformation. ENTPD2 hydrolyzes ATP to ADP, which can subsequently be detected using the HTRF Transcreener ADP2 TR-FRET Red Assay (BellBrook Labs, Madison, Wis.) where ENTPD2-produced ADP would compete with the ADP Tracer for binding to the anti-ADP-Tb antibody. The resulting signal is inversely proportional to the concentration of ADP in the sample.
To establish cell-based functional assays, human/cyno/mouse ENTPD2-engineered NIH/3T3 cells or RKO (ATCC, Manassa Va.) colorectal cancer cells with endogenous ENTPD2 expression were plated overnight at 150, 200 and 250 cells per well for NIH/3T3 mouse, cyno and human ENTPD2 lines, respectively, or 1000 cells per well for RKO in 384-well tissue culture plate, in 30 μl per well (Perkin Elmer, Waltham, Mass.). The following day cells were pre-incubated with Anti-ENTPD2 Abs in dose response for 60 min at 37° C., 5% CO2 (10 μl of 5× antibody dose per well), and subsequently stimulated with a final concentration of 10 μM ATP (Teknova, Hollister, Calif.) for 20 minutes at room temperature (10 μl of 5× (50 μM) ATP per well). Reactions were quenched with 40 mM EDTA/40 mM EGTA, 25 μl per well, and 15 μl of quenched media was transferred to low volume Proxiplates (PerkinElmer, Waltham, Mass.) for ADP detection. ADP production was detected with the Transcreener ADP2 TR-FRET Red Assay (BellBrook Labs, Madison, Wis.) with a final concentration of 4 nM ADP2 antibody and 13.4 nM of ADP Tracer in wells (4× solution was prepared and 5 μL of “Detection Reagent Mix” was added to the quenched conditioned media). Plates were incubated with detection reagents for 1 hour at room temperature prior to reading plates in HTRF mode.
HTRF signal (Emission at 620 nm and 665 nm) was assessed in both assays using the Envision plate reader in HTRF mode (Perkin Elmer, Waltham, Mass.). HTRF ratio was determined using the following formula: HTRF ratio=R=Emission at 665 nm/Emission at 620 nm×10,000. Subsequently % Residual Activity and % Inhibition were determined as follows:
Where R0% is the HTRF ratio of the negative control (0% enzyme activity), and R100% is the HTRF ratio of the positive control (100% enzyme activity). Data were analyzed in Microsoft Excel and graphed using GraphPad's Prism 7.0 software and IC50 values were obtained using non-linear regression, log (agonist) vs. response-variable slope (four parameters) analysis.
Anti-ENTPD2 mAb13 was identified as a mouse ENTPD2 selective Ab (FACS EC50 3-4 nM) with no binding to human or cyno ENTPD2.

| Molecule | ka (human ENTPD2) [M⁻¹ s⁻¹] | kd (human ENTPD2) [s⁻¹] | ka [1] [M⁻¹ s⁻¹] | kd [1] [s⁻¹] | BIACore KD (mouse ENTPD2 [2]) | Kd (human ENTPD2) [nM] | Kd [1] [nM] | % Inhibition at 100 nM (±Std Err) (mouse ENTPD2 [3]) [%] |
| --- | --- | --- | --- | --- | --- | --- | --- | --- |
| B1 | 270000 | 0.00016 | 290000 | 0.003 | No binding |  |  |  |
| B2 | 110000 | 0.00018 | 430000 | 0.0012 | No binding | 1.7 | 2.8 |  |
| B3 |  |  |  |  |  |  |  | 79 ± 2.2 |
| B4 |  |  |  |  |  |  |  | 76 ± 3.4 |
